B1: S. cerevisiae Abp1 (full length; SH3 domain 535-592 mutated) / Hua2 (parent complex)
chain 1: MALEPIDYTTHSREIDAEYLKIVRGSDPDTTWLIISPNAKKEYEPESTGSSFHDFLQLFDETKVQYGLARVSPPGSDVEKIIIIGWCPDSAPLKTRASFAANFAAVANNLFKGYHVQVTARDEDDLDENELLMKISNAAGARYSIQTSSKQQGKASTPPVKKSFTPSKSPAPVSKKEPVKTPSPAPAAKISSRVNDNNDDDDWNEPELKERDFDQAPLKPNQSSYKPIGKIDLQKVIAEEKAKEDPRLVQKPTAAGSKIDPSSDIANLKNESKLKRDSEFNSFLGTTKPPSMTESSLKNDDDKVIKGFRNEKSPAQLWAERKAKQNSGNAETKAEAPKPEVPEDEPEGEPDVKDLKSKFEGLAASEKEEEEMENKFAPPPKKSEPTIISPKPFSKPQEPVKAEEAEQPKTDYKKIGNPLPGMHIEADNEEEPEENDDDWDDDEDEAAQPPLPSRNVASGAPVQKEEPEQEEIAPSLPSRNSIPAPKQEEAPEQAPEEEIEEEAEEAAPQLPSRSSAAPPPPPRRATPEKKPKENPWATAEYDYDAAEDNELTFVENDKIINIEFVDDDWWLGELEKDGSKGLFPSNYVSLGN
chain 2: MQQTKFGKMYLDHDSVVEYSEDEIVEADRITLGYKKRLSMIENQMRHLLEDFSLDVQQIEPILADLQKYYDAFLQLLQKRNKSLQCKRSTHQPVPSPMNSQTSTNAKVNLSGKLMKFQLNSVQKFDEENILRILQNKIEFEHYFQIDKGKKQKVLLLAVYQCLNGPTRLHKVLNIEGIIHNNSIRTILGKQVSSSKWTVFLYDVKLVLLAHRQDVPNLETSKMIVRYGDLFPCALYFKDHTAY

Variants of: B1
Assay: DHFR protein-fragment complementation in yeast (Abp1-DHFR F[1,2] x partner-DHFR F[3]), deep mutational scanning, second methotrexate selection vs reference; S. cerevisiae, DHFR-PCA selection in liquid with methotrexate at 30 C, two 72 h selections (the score uses the second); reference = the pre-selection culture

| Variant | screen value |
| --- | --- |
| chain 1 G578K | -0.619 DMS score: mean over two replicates of log2(f_test/f_ref + 0.5)/ln 2, minus the synonymous-codon median (not a log2 … |
| chain 1 G578M | -0.96 DMS score: mean over two replicates of log2(f_test/f_ref + 0.5)/ln 2, minus the synonymous-codon median (not a log2 … |
| chain 1 K576R | 0.467 DMS score: mean over two replicates of log2(f_test/f_ref + 0.5)/ln 2, minus the synonymous-codon median (not a log2 … |
| chain 1 K576E | -0.947 DMS score: mean over two replicates of log2(f_test/f_ref + 0.5)/ln 2, minus the synonymous-codon median (not a log2 … |
| chain 1 K576A | -0.373 DMS score: mean over two replicates of log2(f_test/f_ref + 0.5)/ln 2, minus the synonymous-codon median (not a log2 … |
| chain 1 D544C | 1.15 DMS score: mean over two replicates of log2(f_test/f_ref + 0.5)/ln 2, minus the synonymous-codon median (not a log2 … |
| chain 1 A539V | -0.172 DMS score: mean over two replicates of log2(f_test/f_ref + 0.5)/ln 2, minus the synonymous-codon median (not a log2 … |
| chain 1 E575Y | -0.704 DMS score: mean over two replicates of log2(f_test/f_ref + 0.5)/ln 2, minus the synonymous-codon median (not a log2 … |
| chain 1 E575K | 0.0377 DMS score: mean over two replicates of log2(f_test/f_ref + 0.5)/ln 2, minus the synonymous-codon median (not a log2 … |
| chain 1 E575H | 0.233 DMS score: mean over two replicates of log2(f_test/f_ref + 0.5)/ln 2, minus the synonymous-codon median (not a log2 … |
| chain 1 L571V | -0.465 DMS score: mean over two replicates of log2(f_test/f_ref + 0.5)/ln 2, minus the synonymous-codon median (not a log2 … |
| chain 1 L571I | -0.705 DMS score: mean over two replicates of log2(f_test/f_ref + 0.5)/ln 2, minus the synonymous-codon median (not a log2 … |
| chain 1 L571T | -0.86 DMS score: mean over two replicates of log2(f_test/f_ref + 0.5)/ln 2, minus the synonymous-codon median (not a log2 … |
| chain 1 L571K | -0.248 DMS score: mean over two replicates of log2(f_test/f_ref + 0.5)/ln 2, minus the synonymous-codon median (not a log2 … |
| chain 1 L571N | -0.368 DMS score: mean over two replicates of log2(f_test/f_ref + 0.5)/ln 2, minus the synonymous-codon median (not a log2 … |
| chain 1 G591L | -0.124 DMS score: mean over two replicates of log2(f_test/f_ref + 0.5)/ln 2, minus the synonymous-codon median (not a log2 … |
| chain 1 G591K | 0.45 DMS score: mean over two replicates of log2(f_test/f_ref + 0.5)/ln 2, minus the synonymous-codon median (not a log2 … |
| chain 1 E540R | -2.88 DMS score: mean over two replicates of log2(f_test/f_ref + 0.5)/ln 2, minus the synonymous-codon median (not a log2 … |
| chain 1 E540S | -1.11 DMS score: mean over two replicates of log2(f_test/f_ref + 0.5)/ln 2, minus the synonymous-codon median (not a log2 … |
| chain 1 E540N | -1.77 DMS score: mean over two replicates of log2(f_test/f_ref + 0.5)/ln 2, minus the synonymous-codon median (not a log2 … |
| chain 1 E540D | 0.44 DMS score: mean over two replicates of log2(f_test/f_ref + 0.5)/ln 2, minus the synonymous-codon median (not a log2 … |
| chain 1 E540G | -1.94 DMS score: mean over two replicates of log2(f_test/f_ref + 0.5)/ln 2, minus the synonymous-codon median (not a log2 … |
| chain 1 E540Q | -1.08 DMS score: mean over two replicates of log2(f_test/f_ref + 0.5)/ln 2, minus the synonymous-codon median (not a log2 … |
| chain 1 L590V | -0.52 DMS score: mean over two replicates of log2(f_test/f_ref + 0.5)/ln 2, minus the synonymous-codon median (not a log2 … |
| chain 1 E563H | -1.36 DMS score: mean over two replicates of log2(f_test/f_ref + 0.5)/ln 2, minus the synonymous-codon median (not a log2 … |
| chain 1 D566H | -2.26 DMS score: mean over two replicates of log2(f_test/f_ref + 0.5)/ln 2, minus the synonymous-codon median (not a log2 … |

| Variant | screen value |
| --- | --- |
| chain 1 D566E | -1.31 DMS score: mean over two replicates of log2(f_test/f_ref + 0.5)/ln 2, minus the synonymous-codon median (not a log2 … |
| chain 1 D566N | -1.27 DMS score: mean over two replicates of log2(f_test/f_ref + 0.5)/ln 2, minus the synonymous-codon median (not a log2 … |
| chain 1 D568W | -2.95 DMS score: mean over two replicates of log2(f_test/f_ref + 0.5)/ln 2, minus the synonymous-codon median (not a log2 … |
| chain 1 E555C | -0.0642 DMS score: mean over two replicates of log2(f_test/f_ref + 0.5)/ln 2, minus the synonymous-codon median (not a log2 … |
| chain 1 L582F | 0.039 DMS score: mean over two replicates of log2(f_test/f_ref + 0.5)/ln 2, minus the synonymous-codon median (not a log2 … |
| chain 1 L582M | -2.34 DMS score: mean over two replicates of log2(f_test/f_ref + 0.5)/ln 2, minus the synonymous-codon median (not a log2 … |
| chain 1 A546Q | 1.19 DMS score: mean over two replicates of log2(f_test/f_ref + 0.5)/ln 2, minus the synonymous-codon median (not a log2 … |
| chain 1 A546M | -0.41 DMS score: mean over two replicates of log2(f_test/f_ref + 0.5)/ln 2, minus the synonymous-codon median (not a log2 … |
| chain 1 A546Y | -0.447 DMS score: mean over two replicates of log2(f_test/f_ref + 0.5)/ln 2, minus the synonymous-codon median (not a log2 … |
| chain 1 N556Q | -0.244 DMS score: mean over two replicates of log2(f_test/f_ref + 0.5)/ln 2, minus the synonymous-codon median (not a log2 … |
| chain 1 N556F | -0.0258 DMS score: mean over two replicates of log2(f_test/f_ref + 0.5)/ln 2, minus the synonymous-codon median (not a log2 … |
| chain 1 I559V | -0.155 DMS score: mean over two replicates of log2(f_test/f_ref + 0.5)/ln 2, minus the synonymous-codon median (not a log2 … |
| chain 1 I560R | 0.102 DMS score: mean over two replicates of log2(f_test/f_ref + 0.5)/ln 2, minus the synonymous-codon median (not a log2 … |
| chain 1 L574T | -0.934 DMS score: mean over two replicates of log2(f_test/f_ref + 0.5)/ln 2, minus the synonymous-codon median (not a log2 … |
| chain 1 L574I | -0.989 DMS score: mean over two replicates of log2(f_test/f_ref + 0.5)/ln 2, minus the synonymous-codon median (not a log2 … |
| chain 1 F564Y | 0.127 DMS score: mean over two replicates of log2(f_test/f_ref + 0.5)/ln 2, minus the synonymous-codon median (not a log2 … |
| chain 1 D577C | -0.926 DMS score: mean over two replicates of log2(f_test/f_ref + 0.5)/ln 2, minus the synonymous-codon median (not a log2 … |
| chain 1 A537C | 0.422 DMS score: mean over two replicates of log2(f_test/f_ref + 0.5)/ln 2, minus the synonymous-codon median (not a log2 … |
| chain 1 D567Q | -2.97 DMS score: mean over two replicates of log2(f_test/f_ref + 0.5)/ln 2, minus the synonymous-codon median (not a log2 … |
| chain 1 D567H | -2.08 DMS score: mean over two replicates of log2(f_test/f_ref + 0.5)/ln 2, minus the synonymous-codon median (not a log2 … |
| chain 1 K558A | -0.817 DMS score: mean over two replicates of log2(f_test/f_ref + 0.5)/ln 2, minus the synonymous-codon median (not a log2 … |
| chain 1 K558V | 0.774 DMS score: mean over two replicates of log2(f_test/f_ref + 0.5)/ln 2, minus the synonymous-codon median (not a log2 … |
| chain 1 K558R | 0.719 DMS score: mean over two replicates of log2(f_test/f_ref + 0.5)/ln 2, minus the synonymous-codon median (not a log2 … |
| chain 1 N549P | -0.774 DMS score: mean over two replicates of log2(f_test/f_ref + 0.5)/ln 2, minus the synonymous-codon median (not a log2 … |
| chain 1 N549W | -2.49 DMS score: mean over two replicates of log2(f_test/f_ref + 0.5)/ln 2, minus the synonymous-codon median (not a log2 … |
| chain 1 N549F | 0.0612 DMS score: mean over two replicates of log2(f_test/f_ref + 0.5)/ln 2, minus the synonymous-codon median (not a log2 … |

Further lines, results first:

| screen value | Variant |
| --- | --- |
| 0.518 DMS score: mean over two replicates of log2(f_test/f_ref + 0.5)/ln 2, minus the synonymous-codon median (not a log2 … | chain 1 P535Y |
| -1.03 DMS score: mean over two replicates of log2(f_test/f_ref + 0.5)/ln 2, minus the synonymous-codon median (not a log2 … | chain 1 T552H |
| -0.255 DMS score: mean over two replicates of log2(f_test/f_ref + 0.5)/ln 2, minus the synonymous-codon median (not a log2 … | chain 1 T552G |
| -0.138 DMS score: mean over two replicates of log2(f_test/f_ref + 0.5)/ln 2, minus the synonymous-codon median (not a log2 … | chain 1 W569Y |
| 2.45 DMS score: mean over two replicates of log2(f_test/f_ref + 0.5)/ln 2, minus the synonymous-codon median (not a log2 … | chain 1 N586M |
| -0.0573 DMS score: mean over two replicates of log2(f_test/f_ref + 0.5)/ln 2, minus the synonymous-codon median (not a log2 … | chain 1 N586P |
| -1.55 DMS score: mean over two replicates of log2(f_test/f_ref + 0.5)/ln 2, minus the synonymous-codon median (not a log2 … | chain 1 N586H |
| 0.632 DMS score: mean over two replicates of log2(f_test/f_ref + 0.5)/ln 2, minus the synonymous-codon median (not a log2 … | chain 1 N586I |
| 0.298 DMS score: mean over two replicates of log2(f_test/f_ref + 0.5)/ln 2, minus the synonymous-codon median (not a log2 … | chain 1 T538R |
| -0.148 DMS score: mean over two replicates of log2(f_test/f_ref + 0.5)/ln 2, minus the synonymous-codon median (not a log2 … | chain 1 T538Y |
| 1.47 DMS score: mean over two replicates of log2(f_test/f_ref + 0.5)/ln 2, minus the synonymous-codon median (not a log2 … | chain 1 Y587L |
| -1.01 DMS score: mean over two replicates of log2(f_test/f_ref + 0.5)/ln 2, minus the synonymous-codon median (not a log2 … | chain 1 Y587C |
| -2.24 DMS score: mean over two replicates of log2(f_test/f_ref + 0.5)/ln 2, minus the synonymous-codon median (not a log2 … | chain 1 Y587S |
| 0.515 DMS score: mean over two replicates of log2(f_test/f_ref + 0.5)/ln 2, minus the synonymous-codon median (not a log2 … | chain 1 N592R |
| 0.405 DMS score: mean over two replicates of log2(f_test/f_ref + 0.5)/ln 2, minus the synonymous-codon median (not a log2 … | chain 1 N592Y |
| 0.074 DMS score: mean over two replicates of log2(f_test/f_ref + 0.5)/ln 2, minus the synonymous-codon median (not a log2 … | chain 1 S589A |
| -0.0692 DMS score: mean over two replicates of log2(f_test/f_ref + 0.5)/ln 2, minus the synonymous-codon median (not a log2 … | chain 1 S589M |
| -0.58 DMS score: mean over two replicates of log2(f_test/f_ref + 0.5)/ln 2, minus the synonymous-codon median (not a log2 … | chain 1 S579M |
| -0.943 DMS score: mean over two replicates of log2(f_test/f_ref + 0.5)/ln 2, minus the synonymous-codon median (not a log2 … | chain 1 S579L |
| 0.556 DMS score: mean over two replicates of log2(f_test/f_ref + 0.5)/ln 2, minus the synonymous-codon median (not a log2 … | chain 1 S579T |
| -0.135 DMS score: mean over two replicates of log2(f_test/f_ref + 0.5)/ln 2, minus the synonymous-codon median (not a log2 … | chain 1 S585N |
| 0.377 DMS score: mean over two replicates of log2(f_test/f_ref + 0.5)/ln 2, minus the synonymous-codon median (not a log2 … | chain 1 N556R |
| -1.6 DMS score: mean over two replicates of log2(f_test/f_ref + 0.5)/ln 2, minus the synonymous-codon median (not a log2 … | chain 1 Y541A |

From publication PMC7954794 (2021)
